Here are results for four molecules from patent US20100297003A1 (TECNOGEN S C P A, published 2010).

Assay [1] has as its target human tenascin C (human) (UniProt P24821). The experiment in a line: BIAcore on tenascin C.
The target of assay [2] is T1, Tn (A(1-4)-D) fragment of human tenascin (human, UniProt P24821 1076-1711, limits assumed).
T1 construct: domain: A(1-4)-D
T1 sequence (looked up): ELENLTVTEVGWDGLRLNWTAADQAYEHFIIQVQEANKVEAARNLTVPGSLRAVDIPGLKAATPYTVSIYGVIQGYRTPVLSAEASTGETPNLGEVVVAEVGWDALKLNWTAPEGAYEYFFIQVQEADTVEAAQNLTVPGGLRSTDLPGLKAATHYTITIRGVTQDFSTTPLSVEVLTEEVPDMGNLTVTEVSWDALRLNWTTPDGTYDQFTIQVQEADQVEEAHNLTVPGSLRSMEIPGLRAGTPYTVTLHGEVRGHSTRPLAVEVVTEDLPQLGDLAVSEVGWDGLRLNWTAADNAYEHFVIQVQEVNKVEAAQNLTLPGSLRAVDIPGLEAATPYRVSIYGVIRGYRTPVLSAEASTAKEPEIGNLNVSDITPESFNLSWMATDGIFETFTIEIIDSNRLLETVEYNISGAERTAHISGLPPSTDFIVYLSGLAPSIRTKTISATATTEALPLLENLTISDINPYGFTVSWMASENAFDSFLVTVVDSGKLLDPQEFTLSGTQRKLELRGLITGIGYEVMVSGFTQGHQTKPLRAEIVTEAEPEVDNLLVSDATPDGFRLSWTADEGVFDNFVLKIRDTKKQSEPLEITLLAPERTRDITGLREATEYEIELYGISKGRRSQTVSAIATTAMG
The experiment in a line: BIAcore on Tn (A1-4-D) fragment. Background: In SPR one partner is held on a chip, and binding of the other changes the refractive index at the surface.

Assay [3] addresses human tenascin C (human) (UniProt P24821). The experiment in a line: ELISA on tenascin C, biotinylated against non-biotinylated antibody. In general terms: An ELISA detects its analyte on a solid surface through an enzyme-linked reagent.
The target in assay [4] is T1, Tn (A(1-4)-D) fragment of human tenascin. The assay can be described thus: ELISA on Tn A(1-4)-D fragment, biotinylated against non-biotinylated antibody.
The target in assay [5] is human tenascin C (human) (UniProt P24821). The assay can be described thus: BIAcore on whole tenascin.
Chain of human tenascin C (human) (P24821 23-2201): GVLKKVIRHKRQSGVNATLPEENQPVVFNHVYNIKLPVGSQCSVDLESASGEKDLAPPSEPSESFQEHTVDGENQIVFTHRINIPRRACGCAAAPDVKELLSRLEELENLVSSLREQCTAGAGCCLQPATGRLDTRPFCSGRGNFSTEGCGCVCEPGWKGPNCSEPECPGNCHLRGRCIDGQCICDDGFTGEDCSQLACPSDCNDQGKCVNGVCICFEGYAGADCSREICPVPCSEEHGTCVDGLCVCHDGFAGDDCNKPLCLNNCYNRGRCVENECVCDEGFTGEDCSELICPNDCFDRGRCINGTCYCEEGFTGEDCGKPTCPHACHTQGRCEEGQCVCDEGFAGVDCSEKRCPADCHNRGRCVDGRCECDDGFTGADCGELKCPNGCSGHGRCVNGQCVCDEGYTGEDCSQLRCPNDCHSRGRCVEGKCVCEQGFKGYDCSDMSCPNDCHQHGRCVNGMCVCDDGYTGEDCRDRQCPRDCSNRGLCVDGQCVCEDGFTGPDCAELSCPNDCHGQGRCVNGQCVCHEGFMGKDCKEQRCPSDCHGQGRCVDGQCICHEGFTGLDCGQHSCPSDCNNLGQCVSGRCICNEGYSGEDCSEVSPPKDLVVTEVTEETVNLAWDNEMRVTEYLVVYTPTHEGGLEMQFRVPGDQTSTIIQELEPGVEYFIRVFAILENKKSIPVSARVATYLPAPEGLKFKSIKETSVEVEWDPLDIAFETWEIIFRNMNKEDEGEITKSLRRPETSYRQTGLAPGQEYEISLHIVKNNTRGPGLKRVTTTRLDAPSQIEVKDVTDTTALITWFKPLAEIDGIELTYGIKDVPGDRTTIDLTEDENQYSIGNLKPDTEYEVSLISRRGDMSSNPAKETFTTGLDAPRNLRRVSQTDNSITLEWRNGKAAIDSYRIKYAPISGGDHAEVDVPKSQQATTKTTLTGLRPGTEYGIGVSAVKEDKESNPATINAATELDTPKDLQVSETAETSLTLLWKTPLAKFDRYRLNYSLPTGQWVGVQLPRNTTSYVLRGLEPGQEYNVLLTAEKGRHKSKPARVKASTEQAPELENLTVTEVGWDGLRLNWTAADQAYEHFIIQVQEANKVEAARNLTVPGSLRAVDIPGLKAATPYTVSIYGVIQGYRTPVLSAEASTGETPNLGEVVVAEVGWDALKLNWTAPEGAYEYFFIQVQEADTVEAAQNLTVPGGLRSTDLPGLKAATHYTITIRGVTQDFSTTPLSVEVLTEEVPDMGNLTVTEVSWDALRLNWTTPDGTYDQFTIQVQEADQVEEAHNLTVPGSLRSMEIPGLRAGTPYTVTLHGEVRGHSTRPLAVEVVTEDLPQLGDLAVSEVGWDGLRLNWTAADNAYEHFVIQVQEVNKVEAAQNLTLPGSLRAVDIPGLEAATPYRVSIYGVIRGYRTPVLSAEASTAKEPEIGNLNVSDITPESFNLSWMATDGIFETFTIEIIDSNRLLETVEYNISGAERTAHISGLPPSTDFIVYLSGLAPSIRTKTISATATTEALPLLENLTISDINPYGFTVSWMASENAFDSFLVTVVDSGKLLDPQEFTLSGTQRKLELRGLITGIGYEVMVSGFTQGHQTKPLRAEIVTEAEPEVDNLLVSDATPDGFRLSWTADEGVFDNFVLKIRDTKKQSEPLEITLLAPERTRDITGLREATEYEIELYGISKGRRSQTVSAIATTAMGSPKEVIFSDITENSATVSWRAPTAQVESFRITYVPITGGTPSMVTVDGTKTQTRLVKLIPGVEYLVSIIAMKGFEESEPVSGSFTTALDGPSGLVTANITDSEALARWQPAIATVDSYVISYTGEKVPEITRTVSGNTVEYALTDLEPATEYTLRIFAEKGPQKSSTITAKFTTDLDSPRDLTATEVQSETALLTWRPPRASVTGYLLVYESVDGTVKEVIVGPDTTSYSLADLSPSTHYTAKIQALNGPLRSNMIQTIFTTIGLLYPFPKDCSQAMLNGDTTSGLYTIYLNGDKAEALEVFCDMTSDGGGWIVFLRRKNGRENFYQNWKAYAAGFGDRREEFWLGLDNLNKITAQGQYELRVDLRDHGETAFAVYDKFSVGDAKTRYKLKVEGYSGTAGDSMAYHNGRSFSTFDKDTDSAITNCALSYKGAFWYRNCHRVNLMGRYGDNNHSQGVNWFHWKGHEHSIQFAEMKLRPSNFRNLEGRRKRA
Assay [6] concerns the target T1, Tn (A(1-4)-D) fragment of human tenascin. The experiment in a line: ELISA on plates coated with Tn A(1-4)-D fragment, reference BC-2. The method, then:
The immunoreactivity of ST2485 was evaluated in comparison with BC-2 by ELISA assay on tenascin C and on the Tn A₍₁₋₄₎-D fragment, as shown in FIG. 7. The antibodies ST2485 and BC-2 and the normal mouse immunoglobulins (nMIgG) were dispensed at increasing concentrations on plates sensitised with tenascin C (a) or with the Tn A₍₁₋₄₎-D fragment (b); the addition of the secondary antimouse antibody labelled with alkaline phosphatase and the related chromogenic substrate (pNPP) made it possible to determine the dose-response curve of the antibodies. The amount of ST2485 necessary to obtain 1.0 OD is approximately 13 times less than the amount of BC-2 on whole tenascin (a), and approximately 10 times less than the amount of BC-2 on the Tn (A1-4-D) fragment (b).

Assay [7] addresses human tenascin C (human) (UniProt P24821). The experiment in a line: competitive ELISA on tenascin C; competitor biotinylated BC-2 at fixed concentration.
The target is the same in assay [8]. The assay can be described thus: ELISA on plates coated with tenascin C, reference BC-2.
The target of assay [9] is T2, EGF-like fragment of human tenascin (human, UniProt P24821 174-621, limits assumed).
T2 construct: domain: EGF-like
T2 sequence (looked up): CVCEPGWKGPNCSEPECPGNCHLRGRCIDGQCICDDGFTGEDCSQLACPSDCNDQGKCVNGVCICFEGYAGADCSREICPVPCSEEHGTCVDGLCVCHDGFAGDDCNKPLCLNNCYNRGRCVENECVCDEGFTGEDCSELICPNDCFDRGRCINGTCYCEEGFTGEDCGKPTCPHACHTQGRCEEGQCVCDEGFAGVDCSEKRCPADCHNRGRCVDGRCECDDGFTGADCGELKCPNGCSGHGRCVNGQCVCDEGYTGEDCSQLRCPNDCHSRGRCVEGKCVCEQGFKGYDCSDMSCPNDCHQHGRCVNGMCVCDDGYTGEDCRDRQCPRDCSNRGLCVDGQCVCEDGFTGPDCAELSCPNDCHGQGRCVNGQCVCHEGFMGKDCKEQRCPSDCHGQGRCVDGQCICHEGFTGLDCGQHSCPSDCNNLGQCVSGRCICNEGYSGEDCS
The experiment in a line: Western blot. (Immunoblotting shows a protein as a band on a membrane.)

Assay [10] has as its target human tenascin C (human) (UniProt P24821). The experiment in a line: ELISA on plates coated with tenascin C, alkaline phosphatase anti-mouse antibody, pNPP.
In assay [11] the target is T1, Tn (A(1-4)-D) fragment of human tenascin. The experiment in a line: competitive ELISA on plates coated with Tn A(1-4)-D fragment; unlabelled antibody at increasing concentration against biotinylated BC-2 at a fixed concentration, HRP-streptavidin/TMB. The method, then:
The biotinylated antibody BC-2, at a concentration established in preliminary experiments, is dispensed with non-biotinylated BC-2 (curve 1) or ST2485 (curve 2) in increasing concentrations on plates sensitised with the antigen tenascin C (a), or Tn A₍₁₋₄₎-D fragment (b). The binding of the biotinylated antibody is measured after addition of HRP-streptavidin and the related chromogenic substrate TMB.

Assay [12] concerns the target human tenascin C (human) (UniProt P24821). The experiment in a line: BIAcore on whole tenascin, reference biotinylated BC-2.

On to anti-tenascin monoclonal antibody BC-2, for which the Kd in the assay with human tenascin C (human) [1] stood at 254 nM; in assay [2], 73.9 nM.
Consider biotinylated BC-2 (antibody), for which the residual immunoreactivity was 88% with human tenascin C (human) [3] and 83% in assay [4]. In addition, the equilibrium dissociation constant (Kd) in the assay with human tenascin C (human) [5] amounted to 371 nM.

B1: anti-human tenascin monoclonal antibody ST2485 (antibody, V domains shown)
VH: EVQLQQSGPELVKPGASMKISCKASGYSFTGYTMNWVKQSHGKNLEWIGLINPHNGGTTYNQKFKGKATLTVDKSSNTAYMELLSLTSEDSAVYYCTRPGGYYWFFDVWGAGTTVTVSS
VL: QIVLSQSPAILSASPGEKVTMTCRANSSVRFMHWYQQKPGSSPKPWIYATSNLASGVPARFSGSGSGTSYSVTISRVEAEDAATYYCQQWSSNSPRTFGGGTKVEIRR
modifications: part of the light chain is N-glycosylated (glycosylated and non-glycosylated variants; site not numbered)
notes: Mouse immunoglobulin of IgG1/k isotype from hybridoma cST2485
B1: the figures for the “fold less antibody than BC-2 needed to obtain 1.0 OD” value (in assay [6]; with human tenascin C (human) [8]) were ~10 fold and 13 fold, respectively. In addition, the values for the Kd (with human tenascin C (human) [1]; in assay [2]) were 0.977 nM and 0.972 nM, respectively. The % inhibition of BC-2 binding with human tenascin C (human) [7] stood at 40%. The same molecule yielded a koff in [2] of 0.000319 s⁻¹. This molecule came in with an on-rate constant (kon) in [2] of 328000 M⁻¹ s⁻¹. Besides, in assay [9], the binding result is “no binding”. In the assay with human tenascin C (human) [10], this molecule displayed an EC50 (read off the curve) of 0.02 µg/mL. Moreover, in [11], the “IC50 (read off the curve)” value was ~0.03 µg/mL.

B2: biotinylated ST2485 (antibody, V domains shown)
VH: B1 VH
VL: B1 VL
modifications: biotinylated, 8.3 biotins/molecule of antibody (sites not given)
Consider B2, for which the residual immunoreactivity with human tenascin C (human) [3] came to 76%. This molecule also returned a fold greater affinity than biotinylated BC-2 with human tenascin C (human) [12] of 100 fold. The Kd in the assay with human tenascin C (human) [5] was 2.88 nM.

Usually Kd stands for the equilibrium constant for the complex coming apart. Read a low Kd as tighter binding. For orientation: koff means a measure of how fast the partners let go of each other. One may read the kon as the second-order rate constant of association. High values mean fast association, low ones slow association. In general, EC50 (read off the curve) refers to the concentration that produces a half-maximal response.
